Reference: patent publication US20200246419A1

Molecular target: CD36 (human) (UniProt P16671)
Experiment: cell-based or functional assay

Chain of CD36 (human) (P16671 2-472): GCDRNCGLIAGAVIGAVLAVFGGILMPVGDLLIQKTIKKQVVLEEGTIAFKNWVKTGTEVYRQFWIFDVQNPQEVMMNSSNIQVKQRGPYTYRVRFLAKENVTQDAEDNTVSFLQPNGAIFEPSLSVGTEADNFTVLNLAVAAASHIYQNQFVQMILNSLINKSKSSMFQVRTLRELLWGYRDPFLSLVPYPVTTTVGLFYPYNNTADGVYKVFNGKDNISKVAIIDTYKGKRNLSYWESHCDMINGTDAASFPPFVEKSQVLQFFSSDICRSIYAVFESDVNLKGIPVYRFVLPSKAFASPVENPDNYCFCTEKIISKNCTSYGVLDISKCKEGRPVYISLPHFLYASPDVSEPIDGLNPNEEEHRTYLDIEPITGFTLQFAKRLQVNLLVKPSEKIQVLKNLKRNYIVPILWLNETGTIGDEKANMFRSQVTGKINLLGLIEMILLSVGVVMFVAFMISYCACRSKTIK

Substance: recombinant human Tsp-1 (from UniProt P07996 19-1170) (ligand)
- total cell number (Wst-1 assay) of patient-derived ovarian cancer cell lines treated with rhTsp-1 for up to 72 hours: < 50%
